Like-named read-outs stand apart in the source and are kept apart here. *1 amine or outer side, *2 acyl side, *3 side chain or, on linkers, in order; H or OH if unused. Bridges are numbered along the chain shown (N, C = ends). Where no end group is shown, it is not given here. [ ]: non-standard residue; d: D form. The star is where a group is joined. maleimide‑NOTA = 1,4,7-triazacyclononane-1,4-bis-acetic acid-7-maleimidoethylacetamide; Biotin = O=C1N[C@H]2[C@H](CS[C@H]2CCCCC(=O)*)N1; Lys(N3) = [N-]=[N+]=NCCCC[C@H](N)C(=O)O; βAsp = O=C(O)[C@H](CC(=O)[*:2])N[*:1]; hSer(lactone) = O=C1OCC[C@@H]1N*; Pra = C#CC[C@H](N)C(=O)O
Legend:
[1] = biological target: T1, wild-type human integrin α5β1 (octyl β-D-glucopyranoside preparation) (human, UniProt P08648 42-1049; P05556 21-798); test: competitive binding assay on α5β1-coated plates, isoDGR/STV-HRP probe
T1 construct: From Immunological Sciences; also called a5p1; asp1
T1 sequence (P08648 42-1049, chain 1 of 2): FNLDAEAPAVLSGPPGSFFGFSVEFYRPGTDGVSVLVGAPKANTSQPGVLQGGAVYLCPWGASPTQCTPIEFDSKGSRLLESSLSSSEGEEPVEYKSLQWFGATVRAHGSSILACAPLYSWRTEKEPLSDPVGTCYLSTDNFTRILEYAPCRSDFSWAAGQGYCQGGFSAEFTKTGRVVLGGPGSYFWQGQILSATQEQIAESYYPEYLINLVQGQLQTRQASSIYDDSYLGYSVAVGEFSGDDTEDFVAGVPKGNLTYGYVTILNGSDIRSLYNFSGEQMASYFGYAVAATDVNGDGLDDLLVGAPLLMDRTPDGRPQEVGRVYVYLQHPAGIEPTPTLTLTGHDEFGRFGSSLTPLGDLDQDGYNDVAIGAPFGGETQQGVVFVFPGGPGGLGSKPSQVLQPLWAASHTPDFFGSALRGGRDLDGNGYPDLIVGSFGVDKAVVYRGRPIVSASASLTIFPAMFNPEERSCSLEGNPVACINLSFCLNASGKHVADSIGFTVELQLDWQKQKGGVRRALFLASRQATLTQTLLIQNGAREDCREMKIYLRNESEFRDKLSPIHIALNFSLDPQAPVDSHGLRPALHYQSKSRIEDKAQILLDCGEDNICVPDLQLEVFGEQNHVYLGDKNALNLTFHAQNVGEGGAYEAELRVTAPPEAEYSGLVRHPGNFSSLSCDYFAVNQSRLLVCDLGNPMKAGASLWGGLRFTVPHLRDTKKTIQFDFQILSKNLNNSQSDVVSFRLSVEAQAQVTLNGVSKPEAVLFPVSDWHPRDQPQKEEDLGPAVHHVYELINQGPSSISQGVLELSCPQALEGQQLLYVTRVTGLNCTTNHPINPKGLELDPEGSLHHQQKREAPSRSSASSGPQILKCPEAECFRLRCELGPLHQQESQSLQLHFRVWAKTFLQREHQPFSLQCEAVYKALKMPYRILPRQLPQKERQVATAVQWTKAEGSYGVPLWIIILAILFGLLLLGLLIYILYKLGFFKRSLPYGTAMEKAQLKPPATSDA
T1 sequence (P05556 21-798, chain 2 of 2): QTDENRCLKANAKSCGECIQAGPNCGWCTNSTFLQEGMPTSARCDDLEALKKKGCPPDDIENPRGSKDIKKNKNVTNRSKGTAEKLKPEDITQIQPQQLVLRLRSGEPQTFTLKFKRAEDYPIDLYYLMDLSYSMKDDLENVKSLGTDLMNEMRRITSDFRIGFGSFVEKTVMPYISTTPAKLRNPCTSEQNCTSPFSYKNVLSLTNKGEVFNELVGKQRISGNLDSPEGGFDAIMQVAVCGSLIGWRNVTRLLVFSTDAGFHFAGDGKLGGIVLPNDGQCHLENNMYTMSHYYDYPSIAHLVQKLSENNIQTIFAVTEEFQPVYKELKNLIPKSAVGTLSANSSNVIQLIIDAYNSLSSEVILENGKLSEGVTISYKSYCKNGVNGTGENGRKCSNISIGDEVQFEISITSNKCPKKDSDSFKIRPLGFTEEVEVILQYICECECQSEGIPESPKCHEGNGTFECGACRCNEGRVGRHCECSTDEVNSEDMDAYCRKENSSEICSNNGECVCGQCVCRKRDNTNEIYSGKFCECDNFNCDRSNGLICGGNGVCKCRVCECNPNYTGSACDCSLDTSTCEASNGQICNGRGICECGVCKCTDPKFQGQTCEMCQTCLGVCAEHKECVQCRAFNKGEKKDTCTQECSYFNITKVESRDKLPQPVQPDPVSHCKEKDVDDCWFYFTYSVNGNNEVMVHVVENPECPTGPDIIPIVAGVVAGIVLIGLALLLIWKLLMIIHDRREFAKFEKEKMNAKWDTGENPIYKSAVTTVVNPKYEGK

[2] = biological target: T2, wild-type human integrin αvβ3 (octyl β-D-glucopyranoside preparation) (human, UniProt P06756 31-1048; P05106 27-788); test: competitive binding assay on αvβ3-coated plates, isoDGR/STV-HRP probe
T2 construct: From Immunological Sciences
T2 sequence (P06756 31-1048, chain 1 of 2): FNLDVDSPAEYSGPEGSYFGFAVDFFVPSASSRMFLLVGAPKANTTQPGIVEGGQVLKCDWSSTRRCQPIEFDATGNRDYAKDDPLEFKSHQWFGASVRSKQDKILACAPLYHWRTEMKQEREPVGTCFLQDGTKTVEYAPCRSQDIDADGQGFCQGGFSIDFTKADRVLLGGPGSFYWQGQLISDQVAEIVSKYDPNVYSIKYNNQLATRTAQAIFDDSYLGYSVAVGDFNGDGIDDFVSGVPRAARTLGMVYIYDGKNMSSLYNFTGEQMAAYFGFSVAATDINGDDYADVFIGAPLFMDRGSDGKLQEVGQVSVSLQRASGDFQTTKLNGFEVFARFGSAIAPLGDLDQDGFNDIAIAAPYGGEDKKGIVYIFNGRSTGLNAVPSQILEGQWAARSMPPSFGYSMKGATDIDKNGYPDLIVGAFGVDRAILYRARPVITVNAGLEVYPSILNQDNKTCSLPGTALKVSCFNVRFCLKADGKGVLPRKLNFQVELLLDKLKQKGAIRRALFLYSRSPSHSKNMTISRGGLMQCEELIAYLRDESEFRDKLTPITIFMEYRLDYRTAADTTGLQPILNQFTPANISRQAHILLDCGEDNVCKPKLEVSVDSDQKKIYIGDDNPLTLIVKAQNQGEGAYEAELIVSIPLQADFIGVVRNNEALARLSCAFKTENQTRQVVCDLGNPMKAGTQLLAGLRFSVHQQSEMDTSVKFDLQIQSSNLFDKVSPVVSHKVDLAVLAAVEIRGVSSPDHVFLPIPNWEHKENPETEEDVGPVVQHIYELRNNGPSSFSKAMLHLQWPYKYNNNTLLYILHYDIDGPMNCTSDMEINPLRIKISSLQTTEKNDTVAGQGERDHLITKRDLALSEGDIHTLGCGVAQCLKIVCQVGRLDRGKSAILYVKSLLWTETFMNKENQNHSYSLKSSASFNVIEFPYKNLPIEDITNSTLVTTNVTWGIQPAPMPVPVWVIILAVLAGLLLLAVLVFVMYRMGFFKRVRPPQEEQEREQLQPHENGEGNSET
T2 sequence (P05106 27-788, chain 2 of 2): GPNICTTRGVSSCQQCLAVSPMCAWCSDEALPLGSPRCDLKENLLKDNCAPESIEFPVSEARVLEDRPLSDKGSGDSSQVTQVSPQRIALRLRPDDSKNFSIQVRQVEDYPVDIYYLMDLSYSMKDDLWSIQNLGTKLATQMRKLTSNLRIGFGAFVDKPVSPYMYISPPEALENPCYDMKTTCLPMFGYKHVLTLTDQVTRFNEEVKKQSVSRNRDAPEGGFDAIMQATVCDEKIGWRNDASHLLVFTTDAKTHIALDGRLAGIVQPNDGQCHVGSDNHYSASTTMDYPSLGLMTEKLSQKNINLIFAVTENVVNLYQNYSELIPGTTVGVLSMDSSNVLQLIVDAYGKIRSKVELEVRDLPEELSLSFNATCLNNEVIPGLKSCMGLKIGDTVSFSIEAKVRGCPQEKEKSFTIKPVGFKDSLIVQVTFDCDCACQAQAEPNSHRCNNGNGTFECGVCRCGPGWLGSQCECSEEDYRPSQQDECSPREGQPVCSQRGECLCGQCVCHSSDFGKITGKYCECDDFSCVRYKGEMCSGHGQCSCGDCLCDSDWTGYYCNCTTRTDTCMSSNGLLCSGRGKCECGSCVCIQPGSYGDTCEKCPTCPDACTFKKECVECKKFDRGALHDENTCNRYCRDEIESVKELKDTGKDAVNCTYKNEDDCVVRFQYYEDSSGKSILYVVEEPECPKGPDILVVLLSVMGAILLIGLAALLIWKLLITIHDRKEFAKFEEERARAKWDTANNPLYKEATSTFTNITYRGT

[3] = biological target: T3, wild-type human integrin αvβ5 (octyl β-D-glucopyranoside preparation) (human, UniProt P06756 31-1048; P18084 24-799); test: competitive binding assay on αvβ5-coated plates, isoDGR/STV-HRP probe
T3 construct: From Immunological Sciences
T3 sequence (P06756 31-1048, chain 1 of 2): as the sequence (P06756 31-1048, chain 1 of 2) above
T3 sequence (P18084 24-799, chain 2 of 2): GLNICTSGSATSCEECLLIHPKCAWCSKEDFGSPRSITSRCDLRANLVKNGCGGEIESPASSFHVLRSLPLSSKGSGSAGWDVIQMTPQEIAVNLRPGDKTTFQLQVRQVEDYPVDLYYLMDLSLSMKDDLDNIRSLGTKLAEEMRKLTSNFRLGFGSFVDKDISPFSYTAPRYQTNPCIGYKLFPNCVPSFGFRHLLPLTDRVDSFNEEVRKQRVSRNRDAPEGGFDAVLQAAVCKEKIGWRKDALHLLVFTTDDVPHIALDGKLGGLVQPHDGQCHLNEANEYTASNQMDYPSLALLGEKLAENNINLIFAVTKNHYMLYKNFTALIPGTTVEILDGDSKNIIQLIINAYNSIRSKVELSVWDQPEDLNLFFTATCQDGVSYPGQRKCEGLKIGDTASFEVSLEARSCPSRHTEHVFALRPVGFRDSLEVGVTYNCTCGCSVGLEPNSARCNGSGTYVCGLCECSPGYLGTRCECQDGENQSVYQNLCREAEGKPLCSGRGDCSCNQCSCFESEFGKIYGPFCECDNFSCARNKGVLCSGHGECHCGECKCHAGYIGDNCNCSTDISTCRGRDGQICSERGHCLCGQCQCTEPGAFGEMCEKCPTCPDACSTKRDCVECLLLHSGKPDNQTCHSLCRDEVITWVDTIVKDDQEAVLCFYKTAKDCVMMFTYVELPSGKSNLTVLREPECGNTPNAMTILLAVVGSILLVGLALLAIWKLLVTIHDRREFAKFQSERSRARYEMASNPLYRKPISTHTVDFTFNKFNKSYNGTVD

[4] = biological target: T4, recombinant human αvβ6 extracellular domain (R&D Systems) (human, UniProt P06756 31-992; P18564 22-709); test: competitive binding assay on αvβ6-coated plates, isoDGR/STV-HRP probe
T4 construct: extracellular domain; Bought; also called recombinant extracellular αvβ6; purified αvβ6

[5] = biological target: T5, αvβ8 integrin (purified, coated on microtiter plates) (UniProt P06756 31-992; P26012 43-684); test: competitive binding assay on αvβ8-coated plates, isoDGR/STV-HRP probe
T5 construct: The Reagents section names no source for αvβ8; also called avs8

[6] = biological target: T4, recombinant human αvβ6 extracellular …; test: competitive αvβ6 binding assay, isoDGR-HRP probe
[7] = biological target: T4, recombinant human αvβ6 extracellular …; test: STD NMR, 0.5 mM peptide with 4 µM αvβ6
bovine serum albumin = biological target: T6, bovine serum albumin (bovine, UniProt P02769 25-607); test: 2D-STD-1H-15N-HSQC NMR, negative control
T6 construct: Negative control in the STD NMR experiments; also called BSA
T6 sequence (P02769 25-607 limits assumed): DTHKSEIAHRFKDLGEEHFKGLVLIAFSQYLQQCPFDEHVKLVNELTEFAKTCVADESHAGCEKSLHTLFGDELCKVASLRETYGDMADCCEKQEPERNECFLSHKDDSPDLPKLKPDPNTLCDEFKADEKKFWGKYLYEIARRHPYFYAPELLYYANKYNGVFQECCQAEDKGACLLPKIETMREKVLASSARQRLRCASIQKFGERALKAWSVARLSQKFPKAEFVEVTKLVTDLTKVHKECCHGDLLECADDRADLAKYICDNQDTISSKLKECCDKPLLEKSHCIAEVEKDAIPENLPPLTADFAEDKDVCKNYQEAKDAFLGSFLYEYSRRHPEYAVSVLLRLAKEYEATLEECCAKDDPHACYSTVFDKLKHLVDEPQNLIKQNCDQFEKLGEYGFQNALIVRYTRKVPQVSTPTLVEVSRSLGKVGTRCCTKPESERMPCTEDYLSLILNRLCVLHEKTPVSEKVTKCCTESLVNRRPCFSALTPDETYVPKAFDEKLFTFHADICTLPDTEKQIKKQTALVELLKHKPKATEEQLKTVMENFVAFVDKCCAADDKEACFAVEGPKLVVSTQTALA

[8] = biological target: T4, recombinant human αvβ6 extracellular …; test: competitive binding assay on αvβ6-coated plates, isoDGR/STV-HRP probe; remark: listed apart in the source
[9] = biological target: T5, αvβ8 integrin (purified, coated on …); test: direct binding to integrin-coated microtiter plates, one site specific binding fit
[10] = biological target: T1, wild-type human integrin α5β1 (octyl …); test: as above
[11] = biological target: T3, wild-type human integrin αvβ5 (octyl …); test: as above
[12] = biological target: T2, wild-type human integrin αvβ3 (octyl …); test: as above
[13] = biological target: T4, recombinant human αvβ6 extracellular …; test: as above
[14] = biological target: T5, αvβ8 integrin (purified, coated on …); test: direct binding to integrin-coated plates, near-infrared fluorescence
[15] = biological target: T4, recombinant human αvβ6 extracellular …; test: as above

B1: peptide 1 (CgA-derived peptide, residues 39-63), synthetic (peptide)
peptide: FETLRGDERILSILRHQNLLKELQD
notes: Synthetic peptide bought from Biomatik; no terminal modification is stated for it; also called compound 1
With B1 the Ki [1] was 9210 nM, the Ki [2] was 2190 nM and the Ki [3] was 3600 nM. It also gave a Ki [4] of 15.5 nM and a Ki [5] of 7660 nM.

B2: peptide 3 (peptide)
peptide: FETLRGDERILSILR-NH2
notes: Made by Fmoc-SPPS on a Rink-amide resin; also called compound 3
B2 was tested, and the Ki [1] was 10100 nM, the Ki [2] was 1250 nM and the Ki [3] was 2040 nM. It also gave a Ki [4] of 277 nM and a Ki [5] of 31200 nM.

C(maleimide‑NOTA)FETLRGEERILSILRHQNLLKELQD (Negative control conjugate) [NOTA-2a (peptide 2a coupled to maleimide-NOTA)]: no binding [6].

B3: recombinant 13C/15N peptide 1 (peptide)
peptide: FETLRGDERILSILRHQNLLKELQD-{hSer(lactone)}
modifications: also: 13C/15N isotope labelled
notes: Used in the 2D-STD NMR experiments; also called recombinant peptide 1; 15N labelled peptide 1
B3: binds [7]; no binding (bovine serum albumin).

Binder CFETLRGDLRILSILR[Pra]QNL[Lys(N3)]KELQD-NH2 (triazole 17-21, also called CgA38-63-derived peptide) [peptide 5a] has a Ki [8] of 1.5 nM.

Work on Ac-C[βAsp]GRCGVRSSSRTPSDK(Biotin)Y (also: in complex with streptavidin-peroxidase conjugate) yielded a Kd [9] of 1.6 nM, a Kd [10] of 1.3 nM and a Kd [11] of 1.7 nM. For the same binder, the Kd [12] was 1.3 nM and the Kd [13] was 1.4 nM.

C(maleimide‑IRDye 800CW)FETLRGEERILSILRHQNLLKELQD (RGE control conjugate) [2a-IRDye (peptide 2a coupled via Cys to maleimide-IRDye 800CW)]: no binding (tested: range 0.01-100 nM) [14]; no binding (tested: range 0.01-100 nM) [15].

Source: patent US20220402980A1 (OSPEDALE SAN RAFFAELE S R L, published 2022)
